# Values quoted from earlier work, collected in paper PMC11544004.
# pKd: −log10 of the molar value.
# Experiments:
# [1] = target: PVR (CD155) (Homo sapiens) (UniProt P15151)
# CD80 (Homo sapiens) = CD80 (Homo sapiens) (UniProt P33681)
# CD86 (Homo sapiens) = CD86 (Homo sapiens) (UniProt P42081)
# UniProt P42081, sequence (P42081 24-247): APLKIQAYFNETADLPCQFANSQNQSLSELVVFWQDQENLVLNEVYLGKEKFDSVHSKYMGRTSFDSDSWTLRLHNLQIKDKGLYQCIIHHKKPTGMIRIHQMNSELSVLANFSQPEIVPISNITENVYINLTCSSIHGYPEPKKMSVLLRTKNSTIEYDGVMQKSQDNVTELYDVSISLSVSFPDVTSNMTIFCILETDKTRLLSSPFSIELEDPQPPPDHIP
# UniProt P33681, sequence (P33681 35-242): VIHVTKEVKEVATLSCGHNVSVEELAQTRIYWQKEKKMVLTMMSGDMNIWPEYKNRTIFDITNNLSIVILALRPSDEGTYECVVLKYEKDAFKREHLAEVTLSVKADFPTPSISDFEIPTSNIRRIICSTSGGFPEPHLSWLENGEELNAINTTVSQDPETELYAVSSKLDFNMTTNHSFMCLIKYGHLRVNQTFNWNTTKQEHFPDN
pKd [1],pKd (CD80 (Homo sapiens)),pKd (CD86 (Homo sapiens)),Substance
8.70,–,–,TIGIT (from UniProt Q495A1)
–,5.40,4.70,CD28 (from UniProt P10747)
